Source: the DeepSol protein solubility set

Test: soluble on expression in E. coli; label from the status in PepcDB or PDB records

MPLDPQIKPILERIRALSIAASPQELRRQVEEQSRLLTAAVQEPIAETRDVHIPVSGGSIRARVYFPKKAAGLPAVLYYHGGGFVFGSIETHDHICRRLSRLSDSVVVSVDYRLAPEYKFPTAVEDAYAALKWVADRADELGVDPDRIAVAGDSAGGNLAAVVSILDRNSGEKLVKKQVLIYPVVNMTGVPTASLVEFGVAETTSLPIELMVWFGRQYLKRPEEAYDFKASPLLADLGGLPPALVVTAEYDPLRDEGELYAYKMKASGSRAVAVRFAGMVHGFVSFYPFVDAGREALDLAAASIRSGLQPS
soluble on expression in E. coli: soluble

MIHRPTAKENAKRFASVIQALHACETACAYCATECGKNGHAEAMGRCVSLCTDCARFCALARDFLERNSEFAELLLEDCAEICQQTMEECVHHAEGHCRKCAEACEQCKKACLEVAGAAPLSSAQQKELLAALLEHHHHHH
soluble on expression in E. coli: not soluble

MSLKLRARLPRGLADRGPAEIAATRAMVEKIREVYERYGFEPVETPAFEYTDALGKFLPDQDRPNEGVFSLQDDDEQWISLRYDLTAPLARYVAENFDQLPKPHRSYRFGWVFRNEKPGPGRFRQFMQFDADTVGAPTAAADAEMCMMAADTMEALGIPRGSYVVKVNNRKVLDGVLESIGLGGDENAGRRLTVLRAIDKSDKFAPEEIKKLLGPGRWDGGEEGKGDFTKGAMLSDDQSELILRATSPSFIAGRFNADGSGGISNIDTVELLRSTADNETLKQGCDELAVIADLLDACGYGATSANPDVRVVIDPSVVRGLEYYTGPVYEVELLLDTKDEKGRPVRFGSVGGGGRYDGLVSRFRGEPVPATGFSIGVSRLQAALTLIGQLGNKPQAGPVVVTVFGGEIAGYQKMVATLRKAGIRAELYLGNPKHSLGQQMKYADKRNSPCAIIQGSDEKQQGIVQIKDLILGAELASLEKDRDEYLKKQAEAQFSEGHHHHHH
soluble on expression in E. coli: not soluble

MAHHHHHHMRPSHKRQAQRQHPRQQCSVAHKAQRAPSSVHGTSGVEHLPRDAVVHVALRKQHRPAGQAHRRIKRHRVVPRRHKVAPHKYHSGARHAHSPTHRHRVLAQQEVAVNKRRNRAANCRNTALHRHAQPQRRLHKKPVHVQRTARRQRHAANHQHANSVAEHRRQLRARDVQHAPRQIHVV
soluble on expression in E. coli: soluble

MSLITDGIMHKVREVYQLLRKEPGIIVGVSNRHVHLSREDLETLFGEGYELTPVKELRQPGQYAAKETVTIVGPKGAIENVRVLGPVRKETQVEISRTDAFRLGVRPPVRDSGDLEGTPGIVIIGPNGILVKEKGVIIAKRHIHMHPKDAEYYGVKDKDIVKVIVESGDRRLIFDDVLIRVREDFALEFHVDTDEANAAMLNTGDLVYIVEFEGGSHHHHHH
soluble on expression in E. coli: soluble

MGEVLHIEDALNEKGVYVSTTSGVSMYPMLRNRRDTIIVKPPTAPLKKYDVPLYRRGDDYVLHRIIGKDDRGYIICGDNCINKEYGITENQIIGVLVGFYRDGNEVNMEGVGYKLYSRAWVFLHPLICAFKKIKMKAGKVKRLWHSK
soluble on expression in E. coli: not soluble

MGSDKIHHHHHHMTIETIKRIIEEENVRFIRLQFTDINGTLKNLEITPDVFLESWEDGIMFDGSSIEGFVRIEESDMYLKPVLDTFAVLPWTVDGAKSARVICDVYTPDGKPFEGDPRYRLRRMMEKAEQLGYTPYAGPEMEFFILPINEKGEPVPEFLDHGGYFDLLPLSKVEEIRRDIAIALEKMGITVEATHHEVAPSQHEVDFRYDTFLRTADNAQTVKLVIKTMAIFHGYHATFMPKPFYGVNGSGMHVHMSLFRGDKNAFYDPDDPLGLSKELRYFVGGILKHAKALAAVTNPTINSYKRLVPGYEAPVYISWSVGNRSALIRIPKARGKATRLEYRSPDPSCNIYLAFAAILAAGLDGIINKIEPPAPVEENIYHMTSERREELNIESLPGSLKEAVEELKKDDVIIDALGEHIFEKFVEAAEKDWKEFSTYVTNWELQRYLYL
soluble on expression in E. coli: not soluble

MREKELKHIENLLLLKVKKEKIEETDKIKEYLKRFEDERRFDGIKESTIKSDLDRLRVFLDYCINYLGKNPEELKTSDFVKFFNYLDTVRKVSKSSQRKYFLLLKVFYRVLRMYNVIQEFVEESKDRKRFARIEIQHYDAVDAEMLNMILKKIIESGSRTRIRDALIIRLLWDTGCRVSEVLNLKYKDCDLDNGIFKIRNTKTHEERTVVCSSDTLELLRNYVQFNVRQGSDDYLFQNSQGGRVRKEWISEVFRKAVNELKEEGKIPKNRRIVIHSIRHGRAVDLLNKGVPIDIVKEYLGHKSMNTTLIYAHSKERAESLEFIKKLLRIQ
soluble on expression in E. coli: not soluble

MSLTMVQVTLEVNGRQVAHEAPPRMHLGDFLRDQARLTGTHLGCEHGVCGACTVLVDGQPVRSCITYAVACEGRQVTTIEGYDGDPVMARLRAAFTKYHALQCGYCTPGMLTTSRDIVLRLPDADEARVRVELSGNLCRCTGYMGIVGAVMSVLRDLREQPDAAVQALRAAAADGRLPAPRGEQPIAFQPFTPSAPSGKGNQIVDAFTVPFPAAEVWAFMVDLPAVAACLPGAVIEETDGQRVKGKIAIKFGPMAAAFNGAARLERDEAAMRAVFRGAGQDSLSQSRATGDIAYQVEAVSENETRVKVDLQYALQGPLAQFSRSGLVQDFVRRMIADFGKNVTARLREGHHHHHH
soluble on expression in E. coli: soluble

MLYVLNKCNGLESVEIIHYNNETTDMKELVENPIIVNCKQVTISTVGGMYGSRELLMNFQIERLISGDSAIGTRFRQGSYEPDHVMSLVNSCFKDRVVNFQDHQGLRLRTDNLAKQILVKKCCRDDFEFEWGVSCRVIPSNLQDIDFEEDWPIWTDIDSDEDCDYSSDDEYEYQYNSDSD
soluble on expression in E. coli: not soluble

MAHHHHHHMSSLDSVREDILDVFHIFDEDGSGSITMQELKRAIYTITGIRISRIDLSILVRTCKEEMLKESARKSEAGANVAGKAGEKLWTPEPESEVNTVDPQLFAAVVLKTLNRRTQEQELLFTFRLLEDKDYPGFITKDSLKRASADIDEHLTDQEVNEMFDKLVTGVSAAAIDFVTFSSLMETLRKSI
soluble on expression in E. coli: soluble

MKTITLRPGQMTLADLRHIYQHPVHITLDESAYVPIQQSVDCVQAILAEQRTAYGINTGFGLLASTRIATEDLENLQRSIVLSHAAGVGEANDDAIVRLIMVLKINSLARGFSGIRLEVIQALITLVNAGVYPHIPLKGSVGASGDLAPLAHMSLLLLGEGKARYQGEWLPAHTALAQAGLQPLTLAAKEGLALLNGTQVSAAYALRGLFEAEDLYAAASVFGCLTVDAALGSRSPFDARIHAVRGQRGQIDAASTYRHLLGERSEISESHKNCDKVQDPYSLRCQPQVMGACLGQIRQAAEVLAIESNAVSDNPLVFAEQGDVLSGGNFHAEPVAMAADNLALALAEVGSLSECRISLMMDKHMSQLPPFLVENGGVNSGFMIAQVTAAALTSENKGLAFPASVDSIPTSANQEDHVSMAPRAGKRLWEMAENVRNILAIEWLAACQGLDLRKGLRTSAILEPARQLLRQHVTYYDKDRFFAPDIEVASQLIAQRHMNELMPAKLLPSL
soluble on expression in E. coli: not soluble

MSKVNQQDIDKLIELVGGRGNIATVSHCITRLRFVLNDPAIARPKEIEQLRMVKGCFTNAGQFQVVIGTEVGDYYKALLATTGQTSADKEQVKQA
soluble on expression in E. coli: not soluble

GPKDNNKTLKPAIAEYIVKKAKQRIALQRWQDELNRRKNHKGMIFVENTVDLEGPPSDFYYINEYKPAPGISLVNEATFGCSCTDCFFQKCCPAEAGVLLAYNKNQQIKIPPGTPIYECNSRCQCGPDCPNRIVQKGTQYSLCIFRTSNGRGWGVKTLVKIKRMSFVMEYVGEVITSEEAERRGQFYDNKGITYLFDLDYESDEFTVDAARYGNVSHFVNHSCDPNLQVFNVFIDNLDTRLPRIALFSTRTINAGEELTFDYQMKGSGDISSDSIDHSPAKKRVRTVCKCGAVTCRGYLN
soluble on expression in E. coli: soluble

MNESVDTDEATTPLVSAIIPTYGRNERLSSAIQSVLEQTYDNIELFVVDDASPTPVRETLDSFDPTVENSFRILRHDENQGANAARNTGIRASDGRYVAFLDDDDQWDETKITKQVQAFQESDSETGVVYTGVRKDGPEGTTVSTPVASGDVMKDLLTGTNFGQFSSVMVDTTVIETAGLPDERLPAWQDREWFFRLAQHTHFRPVRETLTYRQTGLPGSITKKYEQKRDVAYPMLISKHDWVAAEYGIYYERMFKATMRRSLARSAVRADRYKEARKYFLLSALANPLYWPVYPHLFASLGGKWSYESIASLRQQVTNGPASGT
soluble on expression in E. coli: not soluble

MGLIEDKALVEAALFVAGRPLSLKELSKALGIKSLDYLEKLIELIASEYAERKSAIEIVKVAGDKWVMQVKQEYSQRVIPLMPKPELSTGELKTLALIAYLQPVEQSKIVKLRGSQAYEHIRKLLEMGLIYAEPYERTRLLGTTEKFAELYGFPENDPMLIKETFKKVIHAEYSDLMKKIEESEKKKE
soluble on expression in E. coli: soluble

MTKQDQLIVEKMEQTYEAFSPKLANLIEALDAFKEHYEEYATLRNFYSSDEWFRLANQPWDDIPCGVLSEDLLFDMIGDHNQLLADILDLAPIMYKHM
soluble on expression in E. coli: not soluble

MKKDIILSGVGGQGILSIATVIGKAALKDGLYMKQAEVHGMSQRGGDVQSNLRISDQPIASDLIPSGKCDLIISLEPMEGLRYLPYLGHEGWLVTNETPFVNIPNYPAESDVMAEINKLPHKVVLNVDKVAKELGSTRVANIVLLGATIPFLGIDYEKIQDSIREIFQRKGDAIVELNLKALAAGKEIAEK
soluble on expression in E. coli: soluble

MGSDKIHHHHHHMPTITAKIQIHVSDNQAESLKITTNAYRKACNWLSKHIFETKNLNQVNLNNLYYSDLRNQFRLKSQMAQSVMKTVIARYKSAKSNGHEWSLIDFKLAEYDLVWNRDYSLTKNQFSVNTLEGRLKLNYERKAMKKYFNSTWKFGTAKLVHKYKKWFLHIPMTKEYQTLDFADVNNIVGVDLGINFLATTYDSQSKTTFYNGNIVKHKRGKFKATRKQLQTRQTPSSRKKIKQIGSRENRYVTDVNHQITKALVEAYPRGTMFVLEDLTGVRSATEKVRVKNRYVSVSWAFYQFRQMLEYKAELNGQKVIVVDPKYTSQTCPKCGNIEKANRNKKLHTFKCKNCQYQSNDDRISAMNLHRKGIKHISVVTTGV
soluble on expression in E. coli: not soluble

SNASAFTEGTDYMVLEKPIPNADKTLIKVFSYACPFCYKYDKAVTGPVSDKVADLVTFTPFHLETKGEYGKQASEVFAVLIAKDKAAGISLFDAKSQFKKAKFAWYAAYHDKKERWSDGKDPAAFIKTGLDAAGMSQADFEAALKDPAVQETLEKWKAAYDVAKIQGVPAYVVNGKYLIYTKNIKSIDSMAELVRELATKK
soluble on expression in E. coli: soluble

MSKQQPTQFINPETPGYVGFANLPNQVHRKSVKKGFEFTLMVVGESGLGKSTLINSLFLTDLYPERVIPGAAEKIERTVQIEASTVEIEERGVKLRLTVVDTPGYGDAINCRDCFKTIISYIDEQFERYLHDESGLNRRHIIDNRVHCCFYFISPFGHGLKPLDVAFMKAIHNKVNIVPVIAKADTLTLKERERLKKRILDEIEEHNIKIYHLPDAESDEDEDFKEQTRLLKASIPFSVVGSNQLIEAKGKKVRGRLYPWGVVEVENPEHNDFLKLRTMLITHMQDLQEVTQDLHYENFRSERLKRGGRKVENEDMNKDQILLEKEAELRRMQEMIARMQAQMQMQMQGGDGDGGALGHHV
soluble on expression in E. coli: soluble

MNDNKILVVNAGSSSIKFQLFDYHKKVLAKALCERIFVDGFFKLEFNEQKVEEKVAFPDHHAAVTHFLNTLKKHKIIQELSDIILVGHRVVQGANYFKDSVIVDAEALAKIKEFIKLAPLHNKPEADVIEIFFKEVPSAKNVAVFDTTFHTTIPQENYLYAVPRSWEQKHLVRRYGFHGTSYKFINNYLEKHLNKQNLNLIVCHLGNGASVCAIKNGKSFNTSMGFTPLEGLIMGTRSGDLDPAIIGYVAEQENMSASDVVNALNKKSGMLALTGASDMRDVFAKPQENAVAIKMYVNRVADYIAKYLNQLEGNIDGLVFTGGIGENASDCVELFINAVKSLGFATDLKLFVKYGDSCVVSTPQSKYKIYRVRTNEELMIVEDSIRLTQK
soluble on expression in E. coli: soluble
